Test results from publication PMC6965647.

Molecular target: heat shock protein 90 (human (endogenous in brain tissue)) (UniProt P07900)
Assay: native gel or EMSA; human brain homogenates (AD and ND) on 4–10% native gradient gel at 4 °C, immunoblot

heat shock protein 90 (from UniProt P07900 1-732) (natural protein)
stoichiometry N: 2
